B1: library; numbered along this chain (parent)
chain: MRKPRAAVGSGHRKQAASQEGRQKHAKNNSQAKPSACDGLARQPEEVVLQASVSSYHLFRDVAEVTAFRGSLLSWYDQEKRDLPWRRRAEDEMDLDRRAYAVWVSEVMLQQTQVATVINYYTGWMQKWPTLQDLASASLEEVNQLWAGLGYYSRGRRLQEGARKVVEELGGHMPRTAETLQQLLPGVGRYTAGAIASIAFGQATGVVDGNVARVLCRVRAIGADPSSTLVSQQLWGLAQQLVDPARPGDFNQAAMELGATVCTPQRPLCSQCPVESLCRARQRVEQEQLLASGSLSGSPDVEECAPNTGQCHLCLPPSEPWDQTLGVVNFPRKASRKPPREESSATCVLEQPGALGAQILLVQRPNSGLLAGLWEFPSVTWEPSEQLQRKALLQELQRWAGPLPATHLRHLGEVVHTFSHIKLTYQVYGLALEGQTPVTTVPPGARWLTQEEFHTAAVSTAMKKVFRVYQGQQPGTCMGSKRSQVSSPCSRKKPRMGQQVLDNFFRSHISTDAHSLNSAAQ

Variants of: B1
Experiment: 8OG:A repair function score (normalized; synonymous = 0, nonsense = -1) (normalized log-likelihood score); higher = more repair activity (WT-like)
Conditions: with 8OG:A DNA repair reporter (GFP) in HEK-293 MUTYH KO cells
In short: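 With 10 pg/ml doxycycline, MUTYH knockout HEK-293 cells carrying lentiviral MUTYH cDNA NNN codon-scan libraries were co-transfected with mCherry and an 8OG:A GFP repair reporter. Viable mCherry+ cells were sorted into GFP+ (repair) and GFP− bins at 72 h, three replicates per tile, and tile amplicons were sequenced. Per-tile Rosace fitness scores were then normalized into a repair function score anchored on synonymous and nonsense distributions. Medians were fixed at 0 for synonymous and -1 for nonsense, excluding variants under 300 counts per million at the start.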

Variant | 8OG:A repair function score
MRKPRAAVGSGHRKQAASQEGRQKHAKNNSQAKPSACDGLARQPEEVVLQASVSSYHLFRDVAEVTAFRGSLLSWYDQEKRDLPWRRRAEDEMDLDRRAYAVWVSEVMLQQTQVATVINYYTGWMQKWPTLQDLASASLEEVNQLWAGLGYYSRGRRLQEGARKVVEELGGHMPRTAETLQQLLPGVGRYTAGAIASIAFGQATGVVDGNVARVLCRVRAIGADPSSTLVSQQLWGLAQQLVDPARPGDFNQAAMELGATVCTPQRPLCSQCPVESLCRARQRVEQEQLLASGSLSGSPDVEECAPNTGQCHLCLPPSEPWDQTLGVVNFPRKASRKPPREESSATCVLEQPGALGAQILLVQRPNSGLLAGLWEFPSVTWEPSEQLQRKALLQELQRWAGPLPATHLRHLGEVVHTFSHIKLTYQVYGLALEGQTPVTTVPPGARWLTQEEFHTAAVSTAMKKVFRVYQGQQPGTCMGSKRSQVSSPCSRKKPRMGQQVLDNFFRSHISTDATSLNSAAQ [H514T] | -0.02
MRKPRAAVGSGHRKQAASQEGRQKHAKNNSQAKPSACDGLARQPEEVVLQASVSSYHLFRDVAEVTAFRGSLLSWYDQEKRDLPWRRRAEDEMDLDRRAYAVWVSEVMLQQTQVATVINYYTGWMQKWPTLQDLASASLEEVNQLWAGHGYYSRGRRLQEGARKVVEELGGHMPRTAETLQQLLPGVGRYTAGAIASIAFGQATGVVDGNVARVLCRVRAIGADPSSTLVSQQLWGLAQQLVDPARPGDFNQAAMELGATVCTPQRPLCSQCPVESLCRARQRVEQEQLLASGSLSGSPDVEECAPNTGQCHLCLPPSEPWDQTLGVVNFPRKASRKPPREESSATCVLEQPGALGAQILLVQRPNSGLLAGLWEFPSVTWEPSEQLQRKALLQELQRWAGPLPATHLRHLGEVVHTFSHIKLTYQVYGLALEGQTPVTTVPPGARWLTQEEFHTAAVSTAMKKVFRVYQGQQPGTCMGSKRSQVSSPCSRKKPRMGQQVLDNFFRSHISTDAHSLNSAAQ [L149H] | -1.82
MRKPRAAVGSGHRKQAASQEGRQKHAKNNSQAKPSACDGLARQPEEVVLQASVSSYHLFRDVAEVTAFRGSLLSWYDQEKRDLPWRRRAEDEMDLDRRAYAVWVSEVMLQQTQVATVINYYTGWMQKWPTLQDLASASLEEVNQLWAGLGYYSRGRRLQEGARKVVEELGGHMPRTAETLQQLLPGVGRYTAGAIASIAFGQATGVVDGNVARVLCRVRAIGADPSSTLVSQQLWGLAQQLVDPARPGDFNQAAMELGATVCTPQRPLCSQCPVESLCRARQRVEQEQLLASGSLSGSPDVEECAPNTGQCHLCLPPSEPWDQTLGVVNFPRKASRKPPREESSATCVLEQPGALGAQILLVQRPNSGLLAGLWEFPSVTWEPSEQLQRKALLQELQRWAGPLPATHLRHLGEVVHTFSHIKLTYQVYGLALEGQTPVTTVPPGARWLTQEEFHTAAVSTAMKKVFRVYQGQNPGTCMGSKRSQVSSPCSRKKPRMGQQVLDNFFRSHISTDAHSLNSAAQ [Q473N] | 0.0155
MRKPRAAVGSGHRKQAASQEGRQKHAKNNSQAKPSACDGLARQPEEVVLQASVSSYHLFRDVAEVTAFRGSLLSWYDQEKRDLPWRRRAEDEMDLDRRAYAVWVSEVMLQQTQVATVINYYTGWMQKWPTLQDLASASLEEVNQLWAGLGYYSRGRRLQEGARKVVEELGGHMPRTAETLQQLLPGVGRYTAGAIASIAFGQATGVVDGNVARVLCRVRAIGADPSSTLVSQQLWGLAQQLVDPARPGDFNQAAMELGATVCTPQRPLCSQCPVESLCRARQRVEQEQLLASGSLSGSPDVEECAPNTGQCHLCLPPSEPWDQTLGVVNFPRKASRKPPREESSATCVLEQPGALGAQILLVQRPNSGLLAGLWEFPSVTWEPSEQLQRKALLQELQRWAGPLPATHLRHLGEVVHTFSHIKLTYQVYGLALEGQTPVTTWPPGARWLTQEEFHTAAVSTAMKKVFRVYQGQQPGTCMGSKRSQVSSPCSRKKPRMGQQVLDNFFRSHISTDAHSLNSAAQ [V441W] | -0.278
MRKPRAAVGSGHRKQAASQEGRQKHAKNNSQAKPSACDGLARQPEEVVRQASVSSYHLFRDVAEVTAFRGSLLSWYDQEKRDLPWRRRAEDEMDLDRRAYAVWVSEVMLQQTQVATVINYYTGWMQKWPTLQDLASASLEEVNQLWAGLGYYSRGRRLQEGARKVVEELGGHMPRTAETLQQLLPGVGRYTAGAIASIAFGQATGVVDGNVARVLCRVRAIGADPSSTLVSQQLWGLAQQLVDPARPGDFNQAAMELGATVCTPQRPLCSQCPVESLCRARQRVEQEQLLASGSLSGSPDVEECAPNTGQCHLCLPPSEPWDQTLGVVNFPRKASRKPPREESSATCVLEQPGALGAQILLVQRPNSGLLAGLWEFPSVTWEPSEQLQRKALLQELQRWAGPLPATHLRHLGEVVHTFSHIKLTYQVYGLALEGQTPVTTVPPGARWLTQEEFHTAAVSTAMKKVFRVYQGQQPGTCMGSKRSQVSSPCSRKKPRMGQQVLDNFFRSHISTDAHSLNSAAQ [L49R] | 0.00838
MRKPRAAVGSGHRKQAASQEGRQKHAKNNSQAKPSACDGLARQPEEVVLQASVSSYHLFRDVAEVTAFRGSLLSWYDQEKRDLPWRRRAEDEMDLDRRAYAVWVSEVMLQQTQVATVINYYTGWMQKWPTLQDLASASLEEVNQLWAGLGYYSRGRRLQEGARKVVEELGGHMPRTAETLQQLLPGVGRYTAGAIASIAFGQATGVVDGNVARVLCRVRAIGADPSSTLVSQQLWGLAQQLVDPARPGDFNQAAMELGATVCTPQRPLCSQCPVESLCRARQRVEQEQLLASGSLSGSPDVEECAPNTGQCHLCLPPSEPWDQTLGVVNFPRKASRKPPREESSATCVLEQPGALGAQILLVQRPNSGLLAGLWEFPSVTWEPSEQLQRKALLQELQRWAGSLPATHLRHLGEVVHTFSHIKLTYQVYGLALEGQTPVTTVPPGARWLTQEEFHTAAVSTAMKKVFRVYQGQQPGTCMGSKRSQVSSPCSRKKPRMGQQVLDNFFRSHISTDAHSLNSAAQ [P402S] | -0.138
MRKPRAAVGSGHRKQAASQEGRQKHAKNNSQAKPSACDGLARQPEEVVLQASVSSYHLFRDVAEVTAFRGQLLSWYDQEKRDLPWRRRAEDEMDLDRRAYAVWVSEVMLQQTQVATVINYYTGWMQKWPTLQDLASASLEEVNQLWAGLGYYSRGRRLQEGARKVVEELGGHMPRTAETLQQLLPGVGRYTAGAIASIAFGQATGVVDGNVARVLCRVRAIGADPSSTLVSQQLWGLAQQLVDPARPGDFNQAAMELGATVCTPQRPLCSQCPVESLCRARQRVEQEQLLASGSLSGSPDVEECAPNTGQCHLCLPPSEPWDQTLGVVNFPRKASRKPPREESSATCVLEQPGALGAQILLVQRPNSGLLAGLWEFPSVTWEPSEQLQRKALLQELQRWAGPLPATHLRHLGEVVHTFSHIKLTYQVYGLALEGQTPVTTVPPGARWLTQEEFHTAAVSTAMKKVFRVYQGQQPGTCMGSKRSQVSSPCSRKKPRMGQQVLDNFFRSHISTDAHSLNSAAQ [S71Q] | -0.0211
MRKPRAAVGSGHRKQAASQEGRQKHAKNNSQAKPSACDGLARQPEEVVLQASVSSYHLFRDVAEVTAFRGSLLSWYDQEKRDLPWRRRAEDEMDLDRRAYAVWVSEVMLQQTQVATVINYYTGWMQKWPTLQDLASASLEEVNQLWAGLGYYSRGRRLQEGARKVVEELGGHMPRTAETLQQLLPGVGRYTAGAIASIAFGQATGVVDGNVARVLCRVRAIGADPSSTLVSQQLWGLAQQLVDPARPGDFNQAAMELGATVCTPQRPLCSQCPVESLCRARQRVEQEQLLASGSLSGSPDVEECAPNTGQCHLCLPPSEPWDQTLGVVNFPRKASRKPPREESSATCVLEQPGALGAQILLVQRPNSGLLAGLWEFPSVTWEPSEQLQRKALLQELQRWAGPLPATHLRHLGEVVHTFSHIKLTYQVYGLELEGQTPVTTVPPGARWLTQEEFHTAAVSTAMKKVFRVYQGQQPGTCMGSKRSQVSSPCSRKKPRMGQQVLDNFFRSHISTDAHSLNSAAQ [A431E] | 0.346
MRKPRAAVGSGHRKQAASQEGRQKHAKNNSQAKPSACDGLARQPEEVVLQASVSSYHLFRDVAEVTAFRGSLLSWYDQEKRDLPWTRRAEDEMDLDRRAYAVWVSEVMLQQTQVATVINYYTGWMQKWPTLQDLASASLEEVNQLWAGLGYYSRGRRLQEGARKVVEELGGHMPRTAETLQQLLPGVGRYTAGAIASIAFGQATGVVDGNVARVLCRVRAIGADPSSTLVSQQLWGLAQQLVDPARPGDFNQAAMELGATVCTPQRPLCSQCPVESLCRARQRVEQEQLLASGSLSGSPDVEECAPNTGQCHLCLPPSEPWDQTLGVVNFPRKASRKPPREESSATCVLEQPGALGAQILLVQRPNSGLLAGLWEFPSVTWEPSEQLQRKALLQELQRWAGPLPATHLRHLGEVVHTFSHIKLTYQVYGLALEGQTPVTTVPPGARWLTQEEFHTAAVSTAMKKVFRVYQGQQPGTCMGSKRSQVSSPCSRKKPRMGQQVLDNFFRSHISTDAHSLNSAAQ [R86T] | -0.606
MRKPRAAVGSGHRKQAASQEGRQKHAKNNSQAKPSACDGLARQPEEVVLQASVSSYHLFRDVAEVTAFRGSLLSWYDQEKRDLPWRRRAEDEMDLDRRAYAVWVSEVMLQQTQVATVINYYTGWMQKWPTLQDLASASLEEVNQLWAGLGYYSRGRRLQEGARKVVEELGGHMPRTAETLQQLLPGVGRYTAGAIASIAFGYATGVVDGNVARVLCRVRAIGADPSSTLVSQQLWGLAQQLVDPARPGDFNQAAMELGATVCTPQRPLCSQCPVESLCRARQRVEQEQLLASGSLSGSPDVEECAPNTGQCHLCLPPSEPWDQTLGVVNFPRKASRKPPREESSATCVLEQPGALGAQILLVQRPNSGLLAGLWEFPSVTWEPSEQLQRKALLQELQRWAGPLPATHLRHLGEVVHTFSHIKLTYQVYGLALEGQTPVTTVPPGARWLTQEEFHTAAVSTAMKKVFRVYQGQQPGTCMGSKRSQVSSPCSRKKPRMGQQVLDNFFRSHISTDAHSLNSAAQ [Q202Y] | -0.329
MRKPRAAVGSGHRKQAASQEGRQKHAKNNSQAKPSACDGLARQPEEVVLQASVSSYHLFRDVAEVTAFRGSLLSWYDQEKRDLPWRRRAEDEMDLDRRAYAVWVSEVMLQQTQVATVINYYTGWMQKWPTLQDLASASLEEVNQLWAGLGYYSRGRRLQEGARKVVEELGGRMPRTAETLQQLLPGVGRYTAGAIASIAFGQATGVVDGNVARVLCRVRAIGADPSSTLVSQQLWGLAQQLVDPARPGDFNQAAMELGATVCTPQRPLCSQCPVESLCRARQRVEQEQLLASGSLSGSPDVEECAPNTGQCHLCLPPSEPWDQTLGVVNFPRKASRKPPREESSATCVLEQPGALGAQILLVQRPNSGLLAGLWEFPSVTWEPSEQLQRKALLQELQRWAGPLPATHLRHLGEVVHTFSHIKLTYQVYGLALEGQTPVTTVPPGARWLTQEEFHTAAVSTAMKKVFRVYQGQQPGTCMGSKRSQVSSPCSRKKPRMGQQVLDNFFRSHISTDAHSLNSAAQ [H172R] | -0.0155
MRKPRAAVGSGHRKQAASQEGRQKHAKNNSQAKPSACDGLARQPEEVVLQASVSSYHLFRDVAEVTAFRGSLLSWYDQEKRDLPWRRRAEDEMDLDRRAYAVWVSEVMLQQTQVATVINYYTGWMQKWPTLQDLASASLEEVNYLWAGLGYYSRGRRLQEGARKVVEELGGHMPRTAETLQQLLPGVGRYTAGAIASIAFGQATGVVDGNVARVLCRVRAIGADPSSTLVSQQLWGLAQQLVDPARPGDFNQAAMELGATVCTPQRPLCSQCPVESLCRARQRVEQEQLLASGSLSGSPDVEECAPNTGQCHLCLPPSEPWDQTLGVVNFPRKASRKPPREESSATCVLEQPGALGAQILLVQRPNSGLLAGLWEFPSVTWEPSEQLQRKALLQELQRWAGPLPATHLRHLGEVVHTFSHIKLTYQVYGLALEGQTPVTTVPPGARWLTQEEFHTAAVSTAMKKVFRVYQGQQPGTCMGSKRSQVSSPCSRKKPRMGQQVLDNFFRSHISTDAHSLNSAAQ [Q144Y] | -0.286
